Test [1] addresses T1, mouse CTLA-4 (mouse, UniProt P09793 36-162, limits assumed).
T1 construct: antigen of the anti-mouse CTLA-4 BLI measurements; also called murine CTLA-4
Put plainly: BLI (Octet), captured mAb, soluble mouse CTLA-4. The procedure: The binding specificity and affinity of each full-length antibody towards CTLA-4 were determined using biolayer interferometry (BLI) and/or surface plasmon resonance (SPR). Anti-cyno CTLA-4 and anti-mouse CTLA-4 affinities were tested using ForteBio (BLI). Anti-human CTLA-4 affinities were measured using Carterra (SPR).
For BLI, antibodies were loaded onto an Anti-Human IgG Fc (AHC) biosensor using the Octet Red96 system (ForteBio). Loaded biosensors were dipped into antigen dilutions beginning at 300 nM, with 6 serial dilutions at 1:3. Kinetic analysis was performed using a 1:1 binding model and global fitting.
(In BLI a coated tip is dipped into the sample, and binding shifts an interference pattern.)

Test [2] has as its target human CTLA-4 expressed on cells (human, UniProt P16410 36-223). Kind of test: cell-based or functional assay.
Test [3] deals with T2, recombinant human CTLA-4-Fc (human, UniProt P16410 36-162).
T2 construct: bought Fc chimera; also called rhCTLA-4-Fc; rhCTLA-4-Fc chimera; Fc part of the bought chimera not given
Kind of test: blocking ELISA: plate-bound rhCTLA-4-Fc, mAb titrated, rhCD86-His binding detected. The procedure:
(§1) Plates were coated with rhCTLA-4-Fc and then blocked with 1×PBST with 5% w/v nonfat dry milk. After blocking a dilution series of the indicated antibody was added to the plate.
(ELISA stands for enzyme-linked immunosorbent assay.)

Test [4] has as its target T2, recombinant human CTLA-4-Fc. Put plainly: blocking ELISA: plate-bound rhCTLA-4-Fc, mAb titrated, rhCD80-His binding detected. The method, then: as §1

14 molecules from patent US20250289888A1 (GIGAGEN, published 2025) can be followed below.

Sequence of human CTLA-4 expressed on cells (P16410 36-223 limits assumed): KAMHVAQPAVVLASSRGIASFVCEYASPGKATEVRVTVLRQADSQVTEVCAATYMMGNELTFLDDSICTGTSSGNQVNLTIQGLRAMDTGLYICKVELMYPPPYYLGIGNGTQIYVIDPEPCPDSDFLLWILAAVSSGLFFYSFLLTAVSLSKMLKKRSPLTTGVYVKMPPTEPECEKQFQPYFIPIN
T2 sequence (P16410 36-162): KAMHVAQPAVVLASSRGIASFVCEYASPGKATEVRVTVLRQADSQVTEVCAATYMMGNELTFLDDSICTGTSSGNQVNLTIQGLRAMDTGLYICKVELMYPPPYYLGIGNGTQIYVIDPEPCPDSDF

B1: antibody A2 (antibody, human IgG1, V domains shown)
VH: QVQLVESGGGVVQPGRSLRLSCAASGFTFSNYGMNWVRQAPGKGLEWVAVIWYDGRNKHYADSVKGRFTISRDNSKNTLYLQMNSLRAEDTAVYYCARGGDWGPYFDYWGQGTLVTVSS
VL: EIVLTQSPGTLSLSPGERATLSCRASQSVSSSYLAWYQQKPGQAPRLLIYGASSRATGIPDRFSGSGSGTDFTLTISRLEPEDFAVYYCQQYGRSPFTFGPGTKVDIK
notes: full-length human IgG1 (CHO); also called aCTLA-4.4; CTLA4.A2
B1: the binding result in test [1] is given as “no binding (tested: antigen dilutions beginning at 300 nM)”. Further, the “Promega assay antagonist (EC50. ug/mL)” value in test [2] worked out at 0.12 µg/mL. Also, the CD86% inhibition in test [3] is 91.5%. In addition, in test [4], the CD80% inhibition is 95.4%.

B2: antibody A13 (antibody, human IgG1, V domains shown)
VH: QVQLVESGGGVVQPGRSLRLSCAASGFTFSSYGMHWVRQAPGKGLEWVAVIWYDGRNKDYADSVKGRITISRDNSKNTLYLQMNSLRAEDTAVYYCARGGLLGPYFDYWGQGTLVTVSS
VL: not shown
Turning to B2, the “Promega assay antagonist (EC50. ug/mL)” value in test [2] was determined as 0.09 µg/mL.

B3: antibody A3 (antibody, human IgG1, V domains shown)
VH: QVQLVESGGGVVQPGRSLRLSCIASGFTFSSYGMHWVRQAPGKGLEWVAVNWYDGSNKHYADSVKGRFTISRDNSKNTLYLQMNSLRAEDTAVYYCARGGVWGPYFDYWGQGTLVTVSS
VL: not shown
notes: full-length human IgG1 (CHO); also called aCTLA-4.2; L3H3
As to B3, the binding result in test [1] is reported as “no binding (tested: antigen dilutions beginning at 300 nM)”. Also, the “Promega assay antagonist (EC50. ug/mL)” value in test [2] stood at 0.18 µg/mL.

B4: antibody A7 (antibody, human IgG1, V domains shown)
VH: QVQLVESGGGVVQPGRSLRLSCAASGFTLSSFGMHWVRQAPGKGLEWVAVIWYDGSNKYYADSVKGRFIISRDNSKTALYLQMNSLRAEDTAVYYCARAHYFGAFDIWGQGTMVTVSS
VL: not shown
notes: full-length human IgG1 (CHO); also called aCTLA-4.3; CTLA4.A7
On to B4, for which, in test [1], the binding result was “no binding (tested: antigen dilutions beginning at 300 nM)”. The “Promega assay antagonist (EC50. ug/mL)” value in test [2] worked out at 0.17 µg/mL. Also, the CD86% inhibition in test [3] turned out to be 78.8%. In test [4], the CD80% inhibition came to 92.1%.

B5: antibody A10 (antibody, human IgG1, V domains shown)
VH: QVQLVESGGGVVQPGRSLRLSCVASGFTLSSYGMHWVRQAPGKGLEWVAVIWYDGSNKHYADSVKGRFTISRDNSKNTLSLQMNSLRAEDTAVYYCARGGQLGPFDYWGQGTLVTVSS
VL: not shown
notes: full-length human IgG1 (CHO); also called aCTLA-4.22; L10H10
In the case of B5, the binding result in test [1] is on record as “no binding (tested: antigen dilutions beginning at 300 nM)”. In test [2], the “Promega assay antagonist (EC50. ug/mL)” value was determined as 0.26 µg/mL.

B6: GIGA-564 (antibody, V domains shown)
VH: QVQLVESGGGVVQPGRSLRLSCAASGFTFSSYGMHWVRQAPGTGLEWVAVIWYEGRNKYYADPVKGRFTISRDNSKNTLYLQMNSLRDDDTAVYYCARAGDLGAFDIWGQGTMVTVSSA
VL: not shown
notes: fucosylation differs between lots (77-95 %); also called antibody A14; aCTLA-4.15
For the molecule B6, the CD86% inhibition in test [3] stood at 54.5%.

B7: antibody A11 (antibody, human IgG1, V domains shown)
VH: QVQLVESGGGVVQPGRSLRLSCAASGFTFSSYGMHWVRQAPGKGLEWVAVIWYDVGNKYYIDSVKGRFTISRDNSKNTLYLQMNSLRAEDTAVYYCARDYYGSGSPRHFDYWGQGTLVTVSS
VL: DIQLTQSPSFLSASVGDRVTITCRASQGISSYLAWYQQKPGKAPKLLIYAASTLQSGVPSRFSGSGSGTEFTLTISSLQPEDFATYYCQQLNSYPPTFGQGTKVEIK
notes: full-length human IgG1 (CHO); also called aCTLA-4.31; L11H11
As to B7, the binding result in test [1] was “no binding (tested: antigen dilutions beginning at 300 nM)”. The “Promega assay antagonist (EC50. ug/mL)” value in test [2] is 0.42 µg/mL.

B8: antibody A6 (antibody, human IgG1, V domains shown)
VH: QVQLVESGGGVVQPGRSLRLSCAASGFTFSSYGMHWVRQAPGKGLEWVAVIWYDGSYKYYADSVKGRFTISRDDSKNTLYLQMSSLRAEDTAVYYCARAPHYAILTGYYEDYWGQGTLVTVSS
VL: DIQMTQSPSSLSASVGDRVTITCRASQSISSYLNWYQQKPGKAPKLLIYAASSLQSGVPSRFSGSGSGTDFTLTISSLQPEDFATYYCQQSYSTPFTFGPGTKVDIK
Turning to B8, the “Promega assay antagonist (EC50. ug/mL)” value in test [2] was 0.18 µg/mL.

B9: antibody A5 (antibody, V domains shown)
VH: QVQLVESGGGVVQPGRSLRLSCAASGFTFSSYGMHWVRQAPGKGLEWVAVIWYDGNNKYYADSVKGRFTISRDNSKNTLYLQMYSLRAEDTAVYYCARGGILAAGIFDYWGQGTLVTVSS
VL: EIVLTQSPGTLSLSPGDRATLSCRASQSGSSSYLAWYQQKPGQAPRLLIYGASSRATGIPDRFSGSGSGTDFTLTISRLEPEDFAVYYCQQYGTSPFTSGPGTKVDIK
notes: full-length human IgG1 (CHO); also called aCTLA-4.28; CTLA4.A5
Consider B9, for which, in test [2], the “Promega assay antagonist (EC50. ug/mL)” value worked out at 0.18 µg/mL. Moreover, the CD86% inhibition in test [3] was determined as 90.6%. Further, the CD80% inhibition in test [4] was 96.3%.

B10: antibody A1 (antibody, human IgG1, V domains shown)
VH: QVQLVESGGGVVQPGRSLRLSCAASGFTFSSFGMHWVRQAPGKGLEWVAVIWYDGRNKYYVDSVKGRFTISRDNSNNTLYLQMNSLRAEDTAVYYCARGEFFGEFFDYWGQGTLVTVSS
VL: EIVLTQSPGTLSLSPGEGATLSCRASQSFSSNYLAWYQQKPGQAPRLLIYGASSRATGIPDRFSGSGSGTDFTLTISRLEPEDFAVYYCQQYGTSPFTFGPGTKVDIK
For the molecule B10, the “Promega assay antagonist (EC50. ug/mL)” value in test [2] worked out at 0.13 µg/mL.

B11: antibody A4 (antibody, V domains shown)
VH: QVQLVESGGGVVQPGRSLRISCAASGFTFSSYGIHWVRQAPGKGLQWVAVIWYDGRNKYYADSVKGRFTISRDNSKNTLYLQMNSLRAEDTAVYYCSRSGSFGAFDIWGQGTMVTVSS
VL: EIVLTQSPGTLSLSPGDRATLSCRASQSGSSSYLAWYQQKPGQAPRLLIYGASSRATGIPDRFSGSGSGTDFTLTISRLEPEDFAVYYCQQYGTSPFTSGPGTKVDIK
notes: full-length human IgG1 (CHO); also called aCTLA-4.29; L4H4
Take B11: the binding result in test [1] is recorded as “no binding (tested: antigen dilutions beginning at 300 nM)”. For the same molecule, the “Promega assay antagonist (EC50. ug/mL)” value in test [2] was found to be 0.15 µg/mL.

B12: antibody A9 (antibody, human IgG1, V domains shown)
VH: QVQLVESGGGVVQPGRSLRLSCAASGFTFSSHGMHWVRQAPGKGLEWVAVIWYDGSNKHYADSVKGRFTISRDNSKNTLYLQMNSLRAEDTAVYYCARGDILTGYYGYWGQGTLVTVSS
VL: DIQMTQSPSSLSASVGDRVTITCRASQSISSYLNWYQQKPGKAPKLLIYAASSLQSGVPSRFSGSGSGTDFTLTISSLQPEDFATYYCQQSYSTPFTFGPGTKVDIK
notes: full-length human IgG1 (CHO); also called aCTLA-4.24; L9H9
Take B12: in test [1], the binding result was “no binding (tested: antigen dilutions beginning at 300 nM)”. Further, the “Promega assay antagonist (EC50. ug/mL)” value in test [2] worked out at 0.19 µg/mL.

B13: Ipilimumab analog (antibody, human IgG1, V domains shown)
VH: QVQLVESGGGVVQPGRSLRLSCAASGFTFSSYTMHWVRQAPGKGLEWVTFISYDGNNKYYADSVKGRFTISRDNSKNTLYLQMNSLRAEDTAIYYCARTGWLGPFDYWGQGTLVTVSSA
VL: not shown
notes: also called Ipi analog; in-house produced ipilimumab
In the case of B13, in test [1], the binding result is on record as “no binding (tested: antigen dilutions beginning at 300 nM)”.

B14: antibody A8 (antibody, human IgG1, V domains shown)
VH: QVQLVESGGGVVQPGRSLRLSCAASGFTFSRYGMHWVRQAPGKGLEWVAVIWYDGRNKYYADSVKGRFTISRDNSKNTLYLQMNSLRAEDTALYSCARAGELGPFDYWGQGTLVTVSS
VL: EIVLTQSPGTLSLSPGERATLSCRASQSVSYLAWYQQKPGQAPRLLIYGASSRATGIPDRFSGSGSGTDFTLTISRLEPEDFAVYYCQQYGSSPWTFGQGTKVEIK
notes: full-length human IgG1 (CHO); also called aCTLA-4.1; CTLA4.A8
As for B14, the binding result in test [1] is given as “no binding (tested: antigen dilutions beginning at 300 nM)”. Also, the “Promega assay antagonist (EC50. ug/mL)” value in test [2] was 0.15 µg/mL.
